From paper PMC13043311, “2′-O-Methyl-guanosine RNA fragments antagonize TLR7 and TLR8 to limit autoimmunity”

Target: T1, TLR7 S530A (Macaca mulatta, UniProt B3Y653 27-839, S530A)
T1 sequence: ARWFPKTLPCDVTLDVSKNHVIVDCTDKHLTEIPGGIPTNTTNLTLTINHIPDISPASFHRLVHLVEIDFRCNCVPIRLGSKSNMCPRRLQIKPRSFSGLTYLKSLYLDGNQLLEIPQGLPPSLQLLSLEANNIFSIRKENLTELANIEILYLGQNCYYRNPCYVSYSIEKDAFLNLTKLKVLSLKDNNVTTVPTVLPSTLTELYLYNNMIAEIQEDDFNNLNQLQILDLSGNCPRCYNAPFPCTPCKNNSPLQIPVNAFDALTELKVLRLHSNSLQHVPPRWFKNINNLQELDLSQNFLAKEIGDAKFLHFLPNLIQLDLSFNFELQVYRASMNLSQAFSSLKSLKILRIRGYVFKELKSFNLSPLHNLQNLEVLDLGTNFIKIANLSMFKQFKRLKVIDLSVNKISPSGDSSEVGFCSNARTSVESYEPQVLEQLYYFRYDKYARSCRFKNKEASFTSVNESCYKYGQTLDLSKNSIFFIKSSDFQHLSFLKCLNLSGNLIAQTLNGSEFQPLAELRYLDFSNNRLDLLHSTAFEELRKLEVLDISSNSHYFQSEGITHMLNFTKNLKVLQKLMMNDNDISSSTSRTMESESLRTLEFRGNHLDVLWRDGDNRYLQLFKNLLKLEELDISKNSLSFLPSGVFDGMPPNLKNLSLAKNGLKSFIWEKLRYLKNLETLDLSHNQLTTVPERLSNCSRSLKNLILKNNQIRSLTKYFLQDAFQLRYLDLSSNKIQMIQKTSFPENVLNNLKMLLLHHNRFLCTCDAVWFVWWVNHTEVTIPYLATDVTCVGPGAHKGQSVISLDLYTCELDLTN
Experiment: SPR; mean computed from runs 0.1±0.02, 0.2±0.04, 0.2±0.06; SPR with recombinant TLR7/TLR8; buffer, pH and temperature not in the material
Conditions: protein: recombinant; chain copies: 2; single-stranded

B1: mGrUrC PS (XNA)
RNA: GUC
modifications: 2'-OMe G1, RNA U2 C3; phosphorothioate linkages
Kd: 170 nM
